The target of test [1] is T1, proteasome 26S subunit, non-ATPase 4, transcript variant 2 (human, UniProt P55036 1-377).
T1 construct: HuProt array protein, full-length recombinant from yeast; also called PSMD4

Test [2] addresses T2, Src like adaptor, transcript variant 1 (human, UniProt Q13239 2-276).
T2 construct: HuProt array protein, full-length recombinant from yeast; also called SLA
T2 sequence: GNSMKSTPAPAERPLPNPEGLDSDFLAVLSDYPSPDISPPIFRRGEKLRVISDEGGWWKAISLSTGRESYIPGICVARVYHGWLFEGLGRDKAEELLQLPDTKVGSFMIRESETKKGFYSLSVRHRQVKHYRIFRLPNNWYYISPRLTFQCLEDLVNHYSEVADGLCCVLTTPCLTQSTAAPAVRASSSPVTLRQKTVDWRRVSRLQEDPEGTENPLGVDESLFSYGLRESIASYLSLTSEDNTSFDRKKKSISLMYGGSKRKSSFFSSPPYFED

For another test, the target named is T3, PAGE family member 2 (human, UniProt Q7Z2X7 1-111).
T3 construct: HuProt array protein, full-length recombinant from yeast; also called PAGE2
T3 sequence: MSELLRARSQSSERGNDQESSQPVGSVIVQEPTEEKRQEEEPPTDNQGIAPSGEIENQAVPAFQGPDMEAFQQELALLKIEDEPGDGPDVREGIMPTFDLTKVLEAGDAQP

Test [3] concerns the target T4, keratin associated protein 12-3 (human, UniProt P60328 1-96).
T4 construct: HuProt array protein, full-length recombinant from yeast; also called KRTAP12-3
T4 sequence: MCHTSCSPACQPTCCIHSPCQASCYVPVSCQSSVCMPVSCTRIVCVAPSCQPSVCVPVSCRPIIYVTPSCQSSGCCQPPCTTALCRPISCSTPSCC

Test [4] deals with T5, methionyl-tRNA synthetase 1 (human, UniProt P56192 1-900).
T5 construct: HuProt array protein, full-length recombinant from yeast; also called MARS
T5 sequence: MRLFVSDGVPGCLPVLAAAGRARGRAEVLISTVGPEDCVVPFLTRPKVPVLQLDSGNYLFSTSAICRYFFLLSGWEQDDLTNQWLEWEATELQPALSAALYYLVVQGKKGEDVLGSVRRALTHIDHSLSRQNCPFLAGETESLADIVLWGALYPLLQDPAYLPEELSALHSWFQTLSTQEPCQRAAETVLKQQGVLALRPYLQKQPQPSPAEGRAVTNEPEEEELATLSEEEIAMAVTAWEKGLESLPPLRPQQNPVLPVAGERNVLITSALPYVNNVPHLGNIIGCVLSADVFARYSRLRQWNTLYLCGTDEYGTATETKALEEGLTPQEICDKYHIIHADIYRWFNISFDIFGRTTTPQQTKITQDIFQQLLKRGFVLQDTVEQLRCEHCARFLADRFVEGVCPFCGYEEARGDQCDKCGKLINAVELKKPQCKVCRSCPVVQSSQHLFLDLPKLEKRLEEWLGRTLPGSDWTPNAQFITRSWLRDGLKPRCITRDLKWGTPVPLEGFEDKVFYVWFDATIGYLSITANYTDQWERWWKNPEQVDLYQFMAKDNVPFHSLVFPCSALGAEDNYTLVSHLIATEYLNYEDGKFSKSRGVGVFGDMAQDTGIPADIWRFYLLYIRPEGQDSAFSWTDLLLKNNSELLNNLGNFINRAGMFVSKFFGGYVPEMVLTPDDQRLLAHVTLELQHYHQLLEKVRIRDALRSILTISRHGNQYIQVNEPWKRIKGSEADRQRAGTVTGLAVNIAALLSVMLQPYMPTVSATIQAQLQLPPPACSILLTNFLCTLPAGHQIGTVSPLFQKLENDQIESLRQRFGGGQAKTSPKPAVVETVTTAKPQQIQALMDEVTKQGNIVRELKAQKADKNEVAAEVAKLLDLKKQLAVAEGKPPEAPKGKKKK

For another test, the target named is T6, nudix hydrolase 21 (human, UniProt O43809 2-227).
T6 construct: HuProt array protein, full-length recombinant from yeast; also called NUDT21

Test [5] deals with T7, zinc finger protein 431, transcript variant 2 (human, UniProt Q8TF32 1-576).
T7 construct: HuProt array protein, full-length recombinant from yeast; also called ZNF431

The target of the next test is T8, Zinc finger protein 699 (human, UniProt Q32M78 1-642).
T8 construct: HuProt array protein, full-length recombinant from yeast; also called ZNF699

The target in a further test is T9, enolase 2 (human, UniProt P09104 2-434).
T9 construct: HuProt array protein, full-length recombinant from yeast; also called ENO2

Test [6] concerns the target T10, Dpy-30 histone methyltransferase complex regulatory subunit (human, UniProt Q9C005 1-99).
T10 construct: HuProt array protein, full-length recombinant from yeast

The target of test [7] is T11, rhophilin associated tail protein 1 like, transcript variant 2 (human, UniProt Q96C74 1-230).
T11 construct: HuProt array protein, full-length recombinant from yeast; also called ROPN1L
T11 sequence: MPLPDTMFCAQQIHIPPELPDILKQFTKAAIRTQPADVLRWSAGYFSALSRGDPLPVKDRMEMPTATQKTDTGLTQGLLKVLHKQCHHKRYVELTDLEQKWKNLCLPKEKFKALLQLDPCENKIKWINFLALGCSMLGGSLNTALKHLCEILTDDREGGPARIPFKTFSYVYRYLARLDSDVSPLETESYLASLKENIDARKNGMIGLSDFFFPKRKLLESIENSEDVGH

For test [8], the target named is T12, X-linked inhibitor of apoptosis, transcript variant 2 (human, UniProt P98170 1-497).
T12 construct: on protein array; also called XIAP
The test is described as follows: protein array.

Test [9] addresses T13, arginine and glutamate rich 1 (human, UniProt Q9NWB6 1-273).
T13 construct: HuProt array protein, full-length recombinant from yeast; also called ARGLU1
T13 sequence: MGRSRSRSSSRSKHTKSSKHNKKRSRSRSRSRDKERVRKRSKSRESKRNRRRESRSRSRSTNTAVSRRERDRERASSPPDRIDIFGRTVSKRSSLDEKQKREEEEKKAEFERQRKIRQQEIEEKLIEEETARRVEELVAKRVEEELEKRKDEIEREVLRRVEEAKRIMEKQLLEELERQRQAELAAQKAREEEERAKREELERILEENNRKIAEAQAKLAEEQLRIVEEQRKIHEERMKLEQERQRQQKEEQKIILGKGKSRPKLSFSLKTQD

In test [10] the target is T14, SAS-6 centriolar assembly protein, transcript variant 2 (human, UniProt Q6UVJ0 168-657).
T14 construct: HuProt array protein, full-length recombinant from yeast; also called SASS6
T14 sequence: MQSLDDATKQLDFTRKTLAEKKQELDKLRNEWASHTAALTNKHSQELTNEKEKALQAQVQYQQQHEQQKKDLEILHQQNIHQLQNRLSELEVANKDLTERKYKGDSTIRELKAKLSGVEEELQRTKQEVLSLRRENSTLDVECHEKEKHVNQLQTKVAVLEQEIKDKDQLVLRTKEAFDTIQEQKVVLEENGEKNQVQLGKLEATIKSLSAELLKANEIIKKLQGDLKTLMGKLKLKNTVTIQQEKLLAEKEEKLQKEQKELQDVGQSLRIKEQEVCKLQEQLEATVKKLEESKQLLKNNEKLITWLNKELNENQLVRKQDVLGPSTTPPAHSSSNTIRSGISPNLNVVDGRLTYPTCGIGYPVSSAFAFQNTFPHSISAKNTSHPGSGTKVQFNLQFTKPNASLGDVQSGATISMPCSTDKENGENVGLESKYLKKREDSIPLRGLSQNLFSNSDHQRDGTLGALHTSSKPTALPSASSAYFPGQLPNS

Test [11] concerns the target T15, serpin family B member 6, transcript variant 2 (human, UniProt P35237 1-376).
T15 construct: HuProt array protein, full-length recombinant from yeast; also called SERPINB6
T15 sequence: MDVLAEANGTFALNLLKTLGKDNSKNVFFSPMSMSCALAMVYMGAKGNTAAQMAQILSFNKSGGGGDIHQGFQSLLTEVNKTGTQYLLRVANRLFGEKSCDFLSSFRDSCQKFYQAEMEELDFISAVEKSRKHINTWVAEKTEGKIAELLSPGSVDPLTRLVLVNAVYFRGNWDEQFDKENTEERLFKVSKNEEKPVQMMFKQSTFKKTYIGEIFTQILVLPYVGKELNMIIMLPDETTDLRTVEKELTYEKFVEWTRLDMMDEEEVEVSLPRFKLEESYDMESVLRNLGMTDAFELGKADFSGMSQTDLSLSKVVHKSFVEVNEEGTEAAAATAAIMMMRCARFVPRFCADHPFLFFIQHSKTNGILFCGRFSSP

T8 sequence (Q32M78 whole entry): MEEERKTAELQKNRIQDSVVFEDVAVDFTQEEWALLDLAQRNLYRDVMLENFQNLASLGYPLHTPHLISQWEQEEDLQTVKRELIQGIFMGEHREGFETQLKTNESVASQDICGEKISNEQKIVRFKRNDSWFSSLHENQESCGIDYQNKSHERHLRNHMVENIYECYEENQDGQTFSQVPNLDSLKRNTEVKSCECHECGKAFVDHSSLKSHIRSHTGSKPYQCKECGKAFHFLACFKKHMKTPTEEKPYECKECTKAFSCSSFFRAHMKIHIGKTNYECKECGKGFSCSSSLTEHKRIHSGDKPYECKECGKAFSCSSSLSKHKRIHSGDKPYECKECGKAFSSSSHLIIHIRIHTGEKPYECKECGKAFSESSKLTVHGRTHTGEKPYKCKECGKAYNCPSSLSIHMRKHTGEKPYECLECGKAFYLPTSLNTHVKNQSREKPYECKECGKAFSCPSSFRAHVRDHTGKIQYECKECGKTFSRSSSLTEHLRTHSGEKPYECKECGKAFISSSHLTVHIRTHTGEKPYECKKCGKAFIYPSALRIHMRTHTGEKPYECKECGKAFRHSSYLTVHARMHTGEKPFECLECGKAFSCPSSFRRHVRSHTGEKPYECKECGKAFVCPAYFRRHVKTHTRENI
T1 sequence (P55036 whole entry, change not shown): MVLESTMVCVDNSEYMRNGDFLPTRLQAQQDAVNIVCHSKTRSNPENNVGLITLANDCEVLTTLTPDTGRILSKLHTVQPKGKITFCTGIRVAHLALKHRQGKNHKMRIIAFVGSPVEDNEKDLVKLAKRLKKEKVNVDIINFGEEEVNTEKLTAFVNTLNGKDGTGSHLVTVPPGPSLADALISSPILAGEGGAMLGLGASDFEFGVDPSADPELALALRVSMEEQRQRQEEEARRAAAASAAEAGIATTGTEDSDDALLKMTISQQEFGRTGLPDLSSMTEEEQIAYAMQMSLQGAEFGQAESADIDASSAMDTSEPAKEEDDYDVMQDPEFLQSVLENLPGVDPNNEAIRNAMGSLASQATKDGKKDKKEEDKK
T10 sequence (Q9C005 whole entry, one chain of several): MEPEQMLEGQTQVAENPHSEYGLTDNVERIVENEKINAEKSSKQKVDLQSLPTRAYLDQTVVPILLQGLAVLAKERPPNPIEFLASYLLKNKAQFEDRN
T6 sequence (O43809 2-227 limits assumed): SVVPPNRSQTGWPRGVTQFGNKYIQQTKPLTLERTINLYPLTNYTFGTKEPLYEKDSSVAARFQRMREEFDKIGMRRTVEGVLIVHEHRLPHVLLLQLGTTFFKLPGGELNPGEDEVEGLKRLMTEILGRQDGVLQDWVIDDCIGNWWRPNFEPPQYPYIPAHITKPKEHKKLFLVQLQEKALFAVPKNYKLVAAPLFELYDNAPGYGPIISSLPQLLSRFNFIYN
T9 sequence (P09104 2-434 limits assumed): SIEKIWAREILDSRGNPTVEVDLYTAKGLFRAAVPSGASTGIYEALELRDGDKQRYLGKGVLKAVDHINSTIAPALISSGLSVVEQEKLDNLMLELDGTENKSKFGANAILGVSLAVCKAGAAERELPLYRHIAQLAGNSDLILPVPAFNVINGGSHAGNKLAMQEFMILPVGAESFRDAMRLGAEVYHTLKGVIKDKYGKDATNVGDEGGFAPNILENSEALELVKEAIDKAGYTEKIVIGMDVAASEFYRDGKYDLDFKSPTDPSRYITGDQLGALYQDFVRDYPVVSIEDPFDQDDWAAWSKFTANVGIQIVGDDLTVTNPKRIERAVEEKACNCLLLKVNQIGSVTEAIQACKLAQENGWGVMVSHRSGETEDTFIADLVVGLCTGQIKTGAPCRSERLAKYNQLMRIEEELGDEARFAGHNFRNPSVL
T12 sequence (P98170 whole entry, change not shown): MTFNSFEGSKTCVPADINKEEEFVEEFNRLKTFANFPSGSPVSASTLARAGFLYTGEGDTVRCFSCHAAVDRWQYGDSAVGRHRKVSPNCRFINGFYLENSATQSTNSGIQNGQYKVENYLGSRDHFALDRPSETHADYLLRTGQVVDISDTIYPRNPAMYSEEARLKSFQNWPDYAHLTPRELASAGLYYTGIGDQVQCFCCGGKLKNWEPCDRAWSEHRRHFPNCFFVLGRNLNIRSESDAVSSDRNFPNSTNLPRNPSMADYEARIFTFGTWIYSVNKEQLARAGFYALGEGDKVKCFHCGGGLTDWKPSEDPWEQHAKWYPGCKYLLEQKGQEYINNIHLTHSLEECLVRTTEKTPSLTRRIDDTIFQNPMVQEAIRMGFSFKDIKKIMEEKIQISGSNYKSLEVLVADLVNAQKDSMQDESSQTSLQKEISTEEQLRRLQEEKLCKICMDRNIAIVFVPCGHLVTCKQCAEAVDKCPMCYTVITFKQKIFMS
T7 sequence (Q8TF32 other isoform, or with tags, fused parts or gaps mutant limits assumed): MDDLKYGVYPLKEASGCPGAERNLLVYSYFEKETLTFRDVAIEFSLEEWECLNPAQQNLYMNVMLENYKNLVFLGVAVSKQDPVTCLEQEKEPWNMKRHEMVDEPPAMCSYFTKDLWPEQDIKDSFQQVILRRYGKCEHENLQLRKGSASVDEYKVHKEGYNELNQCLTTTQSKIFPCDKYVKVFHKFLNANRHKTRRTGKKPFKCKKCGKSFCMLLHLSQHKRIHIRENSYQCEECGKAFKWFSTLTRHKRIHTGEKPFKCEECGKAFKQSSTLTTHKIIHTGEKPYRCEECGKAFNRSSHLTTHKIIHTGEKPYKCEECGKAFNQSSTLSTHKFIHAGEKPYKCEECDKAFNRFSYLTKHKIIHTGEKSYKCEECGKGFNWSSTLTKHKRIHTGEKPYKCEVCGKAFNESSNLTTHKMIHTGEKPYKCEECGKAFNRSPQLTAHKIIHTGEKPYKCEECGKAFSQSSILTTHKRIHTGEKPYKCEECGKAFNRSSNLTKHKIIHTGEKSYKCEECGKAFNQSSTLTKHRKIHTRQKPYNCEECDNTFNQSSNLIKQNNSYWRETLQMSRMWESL

B1: TMEL1032 (antibody, V domains shown)
VH: QVQLVQSGAEVRKPGASVKVSCKASGYTFTTYYIHWVRQAPGQGLEWMGLINPNGGTTNYAQKFQGRLSMTTDTSTNTVYMELSSLRSEDTAVYYCARKLMSGIVSRGWFDPWGQGTLVTVSS
VL: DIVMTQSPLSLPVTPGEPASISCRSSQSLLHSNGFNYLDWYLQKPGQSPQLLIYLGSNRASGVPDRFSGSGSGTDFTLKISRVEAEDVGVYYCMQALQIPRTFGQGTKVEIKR
notes: detected with anti-human IgG Fc
For B1, the binding result in test [1] and in test [2] was “binds” in each case.

B2: TMEL1035 (antibody, V domains shown)
VH: QVQLVESGGGVVQPGRSLRLSCAASGFTFSSYAMHWVRQAPGKGLEWVAVISYDGSNKYYADSVKGRFTISRDNSKNTLYLQMNSLRAEDTAVYYCASPIAVAAPFAYWGQGTLVTVSS
VL: VSSELTQDPAVSVALGQTVRITCQGDSLRSYYASWYQQKPGQAPVLVIYGKNNRPSGIPDRFSGSSSGNTASLTITGAQAEDEADYYCNSRDSSGNLYVFGTGTKVTVLG
notes: as for B1
Consider B2, for which the binding result (with PAGE family member 2; in test [3]) was “binds” throughout.

B3: TMEL1038 (antibody, V domains shown)
VH: QVQLVQSGAEVKKPGASVKVSCQASGYTFTGYYIHWVRQAPGQGLEWMGWINPNSGGTNYAQKFQGRVTMTRDTSISTAHMELGRLRSDDTAVYYCATPPSRYGGNYYADYWGQGTLVTVSS
VL: ASALTQPASVSGSPGQSITISCTGTSSDVGGYNYVSWYQQHPGKAPQLMIFDVSNRPSGVSNRFSGSKSGDTASLTISGLQAEDEADYYCSSYTSSSTWVFGGGTKLTVLG
notes: as for B1
On to B3, for which the binding result in [4] was “binds”.

B4: TMEL1033 (antibody, V domains shown)
VH: PVQLQESGPGLVKPSETLSLTCTVSGGSVSSGSYYWSWIRQPPGKGLEWIGYIYYSGSTNYNPSLKSRVTISVDTSKNQFSLKLSSVTAADTAVYYCARDRGDYVTHWFDPWGQGTLVTVSS
VL: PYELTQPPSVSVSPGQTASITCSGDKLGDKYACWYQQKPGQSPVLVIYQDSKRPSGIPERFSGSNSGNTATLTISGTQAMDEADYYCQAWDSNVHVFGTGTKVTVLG
notes: as for B1
B4: the binding result (with nudix hydrolase 21; in [5]; with Zinc finger protein 699) was “binds” each time.

B5: TMEL1037 (antibody, V domains shown)
VH: PLQLQESGPGLVKPSETLSLTCTVSGGSISSSSYYWGWIRQSPGKGLEWMGSIYYSGSTYYNPSLKSRVTISVDTSKNQFSLNLSSVTAADTAVYYCARHDYRNYFDYWGQGTLVTVSS
VL: not shown
notes: as for B1
With B5, the binding result with enolase 2 is listed as “binds”.

B6: TMEL1041 (antibody, V domains shown)
VH: EVQLLESGGGLVQPGGSLRLSCAASGFTFRIYAMSWVRQAPGKGLEWVSAISYSGNTTYYADSVKGRFTISRDNSKNTLYLQINNLRAEDTAIYYCAIQEKRELQLRRELDNYWGQGTLVTVSS
VL: PYELTQPPSVSLSPGQTARITCSGDALPKKYAYWYQQKSGQAPVLVIYEDSKRPSGIPERFSGSSSGTTATLTISGAQVDDEGDYYCYSPDSSGNVWVFGGGTKLTVLG
notes: as for B1
For B6, the binding result in [6] and in test [7] was “binds” each time.

B7: TBRE1032 (antibody, V domains shown)
VH: EVQLVESGGGLVQPGGSLRLSCAASGFTFSSYDFHWVRQPTGKGLEWVSAIGTAGDTLYLDSVKGRFTISRENAKNSLYLQMNSLRAGDTAVYYCARVNWNSDTFDSWGQGTLVTVSS
VL: VSSELTQDPAVSVALGQTVRITCQGDSLRRYYASWYQQKAGQAPILVIYGENNRPSGIPDRFSGSGSGNTASLTITGAQAEDEADYYCDSRDSSGNLVVFGGGTKLTVL
notes: VH/VL only
Turning to B7, the binding result in test [8] is recorded as “binds”.

B8: TMEL1031 (antibody, V domains shown)
VH: EVQLVESGGGLVQPGGSLRLSCAASGFTVSSNYMSWVRQAPGKGLEWVSVIYSGGSTYYADSVKGRFTISRDNSKNTLSLQMNSLRAEDTAVYYCARESSAAGYDYWGQGTLVTVSS
VL: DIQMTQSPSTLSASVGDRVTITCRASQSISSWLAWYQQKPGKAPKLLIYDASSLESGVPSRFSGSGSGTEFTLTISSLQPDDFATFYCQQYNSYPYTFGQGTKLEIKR
notes: as for B1
B8: the binding result in test [9] and in test [10] was “binds” in each case.

B9: TMEL1040 (antibody, V domains shown)
VH: EVQLVQSGAEVKKPGESLKISCKGSGYSFTTYWIAWVRQMPGKGLEWMGIIYPADSDTRYSPSFQGQVTMSADQSINTAYLQWSSLKASDTAMYYCARRGREFDYWGQGTLLTVSS
VL: QSALTQPASVSGSPGQSITISCTGTSSDVGSYNLVSWYQQHPGKAPKLMIYEGSKRPSGVSNRFSGSKSGNTASLTISGLQAEDEADYYCCSYAGSSTPWVFGGGTKLTVL
notes: as for B1
B9: the binding result in [11] is “binds”.

Source of the values: patent publication US20220204643A1 (published 2022).
